Experimental data: publication doi:10.1101/2023.03.15.532784

Target: Homo sapiens full-length TRPV4 (hTRPV4) with C-terminal FLAG-tag and 10xHis-tag (human) (UniProt Q9HBA0)
Test: cryo-EM structure

Sequence of UniProt Q9HBA0 (Q9HBA0 whole entry): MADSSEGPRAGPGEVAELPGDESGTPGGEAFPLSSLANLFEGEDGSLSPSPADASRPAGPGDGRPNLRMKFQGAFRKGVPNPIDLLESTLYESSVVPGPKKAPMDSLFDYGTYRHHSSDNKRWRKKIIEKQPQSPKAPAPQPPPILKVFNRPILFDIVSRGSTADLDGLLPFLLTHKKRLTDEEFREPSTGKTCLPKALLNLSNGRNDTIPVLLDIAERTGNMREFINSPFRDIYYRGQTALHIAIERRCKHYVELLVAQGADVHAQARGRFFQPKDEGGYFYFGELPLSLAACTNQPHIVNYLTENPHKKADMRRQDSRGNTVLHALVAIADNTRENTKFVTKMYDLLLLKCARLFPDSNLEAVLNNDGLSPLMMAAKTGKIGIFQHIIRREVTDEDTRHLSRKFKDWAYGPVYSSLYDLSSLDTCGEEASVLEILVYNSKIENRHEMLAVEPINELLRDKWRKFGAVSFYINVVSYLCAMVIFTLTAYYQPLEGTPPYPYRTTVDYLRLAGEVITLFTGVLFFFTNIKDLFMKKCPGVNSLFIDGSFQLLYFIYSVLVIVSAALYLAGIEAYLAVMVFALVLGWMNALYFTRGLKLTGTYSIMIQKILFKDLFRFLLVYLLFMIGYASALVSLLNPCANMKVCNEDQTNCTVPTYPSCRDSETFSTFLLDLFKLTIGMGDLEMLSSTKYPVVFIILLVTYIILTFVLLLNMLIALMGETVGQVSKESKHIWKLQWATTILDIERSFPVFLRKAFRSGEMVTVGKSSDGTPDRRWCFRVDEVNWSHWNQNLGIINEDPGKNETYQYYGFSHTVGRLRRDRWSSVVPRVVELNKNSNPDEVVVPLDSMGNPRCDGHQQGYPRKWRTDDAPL

stoichiometry N (RhoA per TRPV4 subunit): 1
Substance: endogenous RhoA copurified with overexpressed TRPV4 (from UniProt P61586 1-193) (natural protein)
